Measurements taken from US20210102950A1 (YALE UNIVERSITY, published 2021).

Molecular target: T1, ubiquitin (single molecule, mono-ubiquitin) (Homo sapiens (Human), UniProt P0CG47 1-76)
T1 construct: also called one ubiquitin
Assay: isothermal titration calorimetry, one OtUBD to one ubiquitin

B1: OtUBD (ubiquitin binding domain of an effector protein of Orientia tsutsugamushi), native unmodified domain (other)
chain: VNFLSENRMITSAAAALADTLLKNNNRITEGVLVDRIFDNKILSVQEKQQLLNNLLDNHIKENKSLTKESLTRMLASTHFVQQQANVLLNEKFNK
notes: also called OtUDB
Kd: 5.3 nM
